Results taken from article PMC10786891, “Massively parallel profiling of RNA-targeting CRISPR-Cas13d”.

T1: EsCas13d, nuclease-dead (Eubacterium siraeum, UniProt B0MS50, R295A;H300A;R849A;H854A)
T1 sequence: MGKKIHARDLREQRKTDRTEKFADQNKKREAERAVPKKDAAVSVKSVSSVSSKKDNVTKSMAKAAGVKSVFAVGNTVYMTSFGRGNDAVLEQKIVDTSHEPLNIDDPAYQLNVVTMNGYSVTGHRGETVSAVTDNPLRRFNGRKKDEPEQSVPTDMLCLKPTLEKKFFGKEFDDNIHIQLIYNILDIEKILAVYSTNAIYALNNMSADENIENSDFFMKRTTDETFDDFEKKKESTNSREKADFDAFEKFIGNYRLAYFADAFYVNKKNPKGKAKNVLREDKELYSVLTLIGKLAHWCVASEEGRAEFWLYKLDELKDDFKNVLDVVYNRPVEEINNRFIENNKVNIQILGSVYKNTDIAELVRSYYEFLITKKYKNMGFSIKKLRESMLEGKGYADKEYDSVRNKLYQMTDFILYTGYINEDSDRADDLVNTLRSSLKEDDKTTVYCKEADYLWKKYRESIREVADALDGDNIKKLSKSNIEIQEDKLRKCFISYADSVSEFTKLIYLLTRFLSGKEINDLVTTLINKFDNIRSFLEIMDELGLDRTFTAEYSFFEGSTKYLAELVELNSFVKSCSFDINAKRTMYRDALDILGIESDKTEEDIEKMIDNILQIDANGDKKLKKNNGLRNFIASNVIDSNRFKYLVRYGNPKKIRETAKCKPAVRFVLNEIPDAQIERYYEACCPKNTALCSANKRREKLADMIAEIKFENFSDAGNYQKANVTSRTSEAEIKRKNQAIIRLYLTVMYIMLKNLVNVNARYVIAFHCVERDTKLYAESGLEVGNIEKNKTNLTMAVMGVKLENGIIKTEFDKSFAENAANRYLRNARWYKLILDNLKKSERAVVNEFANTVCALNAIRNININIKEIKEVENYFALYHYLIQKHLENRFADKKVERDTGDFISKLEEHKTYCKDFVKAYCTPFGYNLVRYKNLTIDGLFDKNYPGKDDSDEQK


Target: T1, EsCas13d, nuclease-dead
Assay: crRNA (strand 1, pre-loaded); Mg2+; 40 mM Tris-HCl pH 7.5, 150 mM NaCl, 6 mM MgCl2, 1 mM DTT, 0.1% Tween-20, 0.2 mg/ml BSA; 25 C; 10 min per concentration, then washed
Settings: tags: His6-TwinStrep-SUMO cleaved; N-terminal SNAP kept (SNAP-Surface 488); label: 3' end held by stalled T7 RNA polymerase

Binder	Kd
target 1 insA 3' of 8,insG 3' of 4 (mixed) RNA 1: CACCCGUGCAAAAAUGCAGGGGUCUAAAACUGAGCGGAUAACCUCUCUAUGG RNA 2: GGGAAUGGAUCCACAUCUACGAAUUCGUACCAUAGAGAGGUUAUACCGCGUCACCGAGAUCGGAAGAGCACACGU	7.7 ± 0.5 nM
target 1 insG 3' of 16,insC 3' of 9 (mixed) RNA 1: CACCCGUGCAAAAAUGCAGGGGUCUAAAACUGAGCGGAUAACCUCUCUAUGG RNA 2: GGGAAUGGAUCCACAUCUACGAAUUCGUACCAUAGAGGAGGUUACUCCGCUCACCGAGAUCGGAAGAGCACACGU	23.4 ± 1.1 nM
target 1 insU 3' of 13,insC 3' of 5 (mixed) RNA 1: CACCCGUGCAAAAAUGCAGGGGUCUAAAACUGAGCGGAUAACCUCUCUAUGG RNA 2: GGGAAUGGAUCCACAUCUACGAAUUCGUACCAUAGAGAGUGUUAUCCGCCUCACCGAGAUCGGAAGAGCACACGU	21 ± 4 nM
target 1 insC 3' of 19 (mixed) RNA 1: CACCCGUGCAAAAAUGCAGGGGUCUAAAACUGAGCGGAUAACCUCUCUAUGG RNA 2: GGGAAUGGAUCCACAUCUACGAAUUCGUACCAUCAGAGAGGUUAUCCGCUCACCGAGAUCGGAAGAGCACACGU	26.9 ± 2.2 nM
target 1 C7U,U19A (mixed) RNA 1: CACCCGUGCAAAAAUGCAGGGGUCUAAAACUGAGCGGAUAACCUCUCUAUGG RNA 2: GGGAAUGGAUCCACAUCUACGAAUUCGUACCAAAGAGAGGUUAUUCGCUCACCGAGAUCGGAAGAGCACACGU	34 ± 4 nM
target 1 A9U,U10A (mixed) RNA 1: CACCCGUGCAAAAAUGCAGGGGUCUAAAACUGAGCGGAUAACCUCUCUAUGG RNA 2: GGGAAUGGAUCCACAUCUACGAAUUCGUACCAUAGAGAGGUAUUCCGCUCACCGAGAUCGGAAGAGCACACGU	20.5 ± 2.1 nM
target 1 insU 3' of 20,insC 3' of 11 (mixed) RNA 1: CACCCGUGCAAAAAUGCAGGGGUCUAAAACUGAGCGGAUAACCUCUCUAUGG RNA 2: GGGAAUGGAUCCACAUCUACGAAUUCGUACCAUUAGAGAGGUCUAUCCGCUCACCGAGAUCGGAAGAGCACACGU	62 ± 18 nM
target 1 insC 3' of 20,insC 3' of 9 (mixed) RNA 1: CACCCGUGCAAAAAUGCAGGGGUCUAAAACUGAGCGGAUAACCUCUCUAUGG RNA 2: GGGAAUGGAUCCACAUCUACGAAUUCGUACCACUAGAGAGGUUACUCCGCUCACCGAGAUCGGAAGAGCACACGU	8.9 ± 0.6 nM
target 1 insC 3' of 18 (mixed) RNA 1: CACCCGUGCAAAAAUGCAGGGGUCUAAAACUGAGCGGAUAACCUCUCUAUGG RNA 2: GGGAAUGGAUCCACAUCUACGAAUUCGUACCAUACGAGAGGUUAUCCGCUCACCGAGAUCGGAAGAGCACACGU	30.3 ± 1.9 nM
target 1 insG 3' of 7,insU 3' of 4 (mixed) RNA 1: CACCCGUGCAAAAAUGCAGGGGUCUAAAACUGAGCGGAUAACCUCUCUAUGG RNA 2: GGGAAUGGAUCCACAUCUACGAAUUCGUACCAUAGAGAGGUUAUCGCGCUUCACCGAGAUCGGAAGAGCACACGU	6.4 ± 0.4 nM
target 1 insU 3' of 17,insG 3' of 8 (mixed) RNA 1: CACCCGUGCAAAAAUGCAGGGGUCUAAAACUGAGCGGAUAACCUCUCUAUGG RNA 2: GGGAAUGGAUCCACAUCUACGAAUUCGUACCAUAGUAGAGGUUAUGCCGCUCACCGAGAUCGGAAGAGCACACGU	21 ± 1.2 nM
target 1 C7U,A14C (mixed) RNA 1: CACCCGUGCAAAAAUGCAGGGGUCUAAAACUGAGCGGAUAACCUCUCUAUGG RNA 2: GGGAAUGGAUCCACAUCUACGAAUUCGUACCAUAGAGCGGUUAUUCGCUCACCGAGAUCGGAAGAGCACACGU	30 ± 4 nM
target 1 insC 3' of 18,insA 3' of 8 (mixed) RNA 1: CACCCGUGCAAAAAUGCAGGGGUCUAAAACUGAGCGGAUAACCUCUCUAUGG RNA 2: GGGAAUGGAUCCACAUCUACGAAUUCGUACCAUACGAGAGGUUAUACCGCUCACCGAGAUCGGAAGAGCACACGU	69 ± 10 nM
target 1 insA 3' of 15,insG 3' of 6 (mixed) RNA 1: CACCCGUGCAAAAAUGCAGGGGUCUAAAACUGAGCGGAUAACCUCUCUAUGG RNA 2: GGGAAUGGAUCCACAUCUACGAAUUCGUACCAUAGAGAAGGUUAUCCGGCUCACCGAGAUCGGAAGAGCACACGU	9.3 ± 0.5 nM
target 1 insG 3' of 11,insC 3' of 8 (mixed) RNA 1: CACCCGUGCAAAAAUGCAGGGGUCUAAAACUGAGCGGAUAACCUCUCUAUGG RNA 2: GGGAAUGGAUCCACAUCUACGAAUUCGUACCAUAGAGAGGUGUAUCCCGCUCACCGAGAUCGGAAGAGCACACGU	39 ± 6 nM
target 1 insC 3' of 19,insC 3' of 18 (mixed) RNA 1: CACCCGUGCAAAAAUGCAGGGGUCUAAAACUGAGCGGAUAACCUCUCUAUGG RNA 2: GGGAAUGGAUCCACAUCUACGAAUUCGUACCAUCACGAGAGGUUAUCCGCUCACCGAGAUCGGAAGAGCACACGU	45.8 ± 3.4 nM
target 1 insA 3' of 12,insG 3' of 2 (mixed) RNA 1: CACCCGUGCAAAAAUGCAGGGGUCUAAAACUGAGCGGAUAACCUCUCUAUGG RNA 2: GGGAAUGGAUCCACAUCUACGAAUUCGUACCAUAGAGAGGAUUAUCCGCUCGACCGAGAUCGGAAGAGCACACGU	30 ± 4 nM
target 1 insU 3' of 22,insU 3' of 9 (mixed) RNA 1: CACCCGUGCAAAAAUGCAGGGGUCUAAAACUGAGCGGAUAACCUCUCUAUGG RNA 2: GGGAAUGGAUCCACAUCUACGAAUUCGUACUCAUAGAGAGGUUAUUCCGCUCACCGAGAUCGGAAGAGCACACGU	~60 nM
target 1 G5A,G12U (mixed) RNA 1: CACCCGUGCAAAAAUGCAGGGGUCUAAAACUGAGCGGAUAACCUCUCUAUGG RNA 2: GGGAAUGGAUCCACAUCUACGAAUUCGUACCAUAGAGAGUUUAUCCACUCACCGAGAUCGGAAGAGCACACGU	14.4 ± 1.4 nM
target 1 insU 3' of 21,insC 3' of 10 (mixed) RNA 1: CACCCGUGCAAAAAUGCAGGGGUCUAAAACUGAGCGGAUAACCUCUCUAUGG RNA 2: GGGAAUGGAUCCACAUCUACGAAUUCGUACCUAUAGAGAGGUUCAUCCGCUCACCGAGAUCGGAAGAGCACACGU	51 ± 9 nM
target 1 insU 3' of 20,insA 3' of 7 (mixed) RNA 1: CACCCGUGCAAAAAUGCAGGGGUCUAAAACUGAGCGGAUAACCUCUCUAUGG RNA 2: GGGAAUGGAUCCACAUCUACGAAUUCGUACCAUUAGAGAGGUUAUCACGCUCACCGAGAUCGGAAGAGCACACGU	9.9 ± 0.6 nM
target 1 C2U,U3G (mixed) RNA 1: CACCCGUGCAAAAAUGCAGGGGUCUAAAACUGAGCGGAUAACCUCUCUAUGG RNA 2: GGGAAUGGAUCCACAUCUACGAAUUCGUACCAUAGAGAGGUUAUCCGCGUACCGAGAUCGGAAGAGCACACGU	21 ± 4 nM
target 1 insC 3' of 12,insG 3' of 6 (mixed) RNA 1: CACCCGUGCAAAAAUGCAGGGGUCUAAAACUGAGCGGAUAACCUCUCUAUGG RNA 2: GGGAAUGGAUCCACAUCUACGAAUUCGUACCAUAGAGAGGCUUAUCCGGCUCACCGAGAUCGGAAGAGCACACGU	9.1 ± 1.6 nM
target 1 insG 3' of 10,insU 3' of 7 (mixed) RNA 1: CACCCGUGCAAAAAUGCAGGGGUCUAAAACUGAGCGGAUAACCUCUCUAUGG RNA 2: GGGAAUGGAUCCACAUCUACGAAUUCGUACCAUAGAGAGGUUGAUCUCGCUCACCGAGAUCGGAAGAGCACACGU	21.8 ± 0.9 nM
target 1 A9G,U19C (mixed) RNA 1: CACCCGUGCAAAAAUGCAGGGGUCUAAAACUGAGCGGAUAACCUCUCUAUGG RNA 2: GGGAAUGGAUCCACAUCUACGAAUUCGUACCACAGAGAGGUUGUCCGCUCACCGAGAUCGGAAGAGCACACGU	33.8 ± 3.3 nM
target 1 C4G,A9U (mixed) RNA 1: CACCCGUGCAAAAAUGCAGGGGUCUAAAACUGAGCGGAUAACCUCUCUAUGG RNA 2: GGGAAUGGAUCCACAUCUACGAAUUCGUACCAUAGAGAGGUUUUCCGGUCACCGAGAUCGGAAGAGCACACGU	3.93 ± 0.23 nM
target 1 insA 3' of 22,insU 3' of 13 (mixed) RNA 1: CACCCGUGCAAAAAUGCAGGGGUCUAAAACUGAGCGGAUAACCUCUCUAUGG RNA 2: GGGAAUGGAUCCACAUCUACGAAUUCGUACACAUAGAGAGUGUUAUCCGCUCACCGAGAUCGGAAGAGCACACGU	20.6 ± 2.9 nM
target 1 G12A,G17C (mixed) RNA 1: CACCCGUGCAAAAAUGCAGGGGUCUAAAACUGAGCGGAUAACCUCUCUAUGG RNA 2: GGGAAUGGAUCCACAUCUACGAAUUCGUACCAUACAGAGAUUAUCCGCUCACCGAGAUCGGAAGAGCACACGU	34 ± 8 nM
